Assay results taken from US20230235034A1 (University of Pennsylvania, published 2023).

How the values were obtained:
[1] = biological target: T1, AD-P1 PFFs (AD-tau seeded recombinant tau preformed fibrils) (human, UniProt P10636 2-758); assay: sandwich ELISA, tau antigen captured by K9JA
T1 construct: Fibrils made from 36 uM T40 tau (2N4R) and 4 uM AD-tau seeds; also called T40 AD-P1 PFFs
Method: (§1) Blocking was performed with BlockAce solution (Abd Serotec) at 4° C. overnight. […] Plates were washed with PBST and HRP-conjugated anti-mouse (Jackson Immunoresearch) secondary antibodies were applied for 2 h at 22° C. Plates were washed and tetramethylbenzidine peroxidase substrate (KPL laboratories) was added to wells to provide a colorimetric readout, quenched with 10% phosphoric acid and then absorbance measured at 450 nm (Molecular Devices SpectraMax).
(§2) Towards the goal of generating conformation-selective tau mAbs, mice were inoculated with human AD brain-derived extracts enriched in insoluble tau (AD-tau). Hybridoma clones generated from immunized mice were screened by sandwich ELISA to simultaneously assess binding of antibodies to tau monomer, AD-tau seeded recombinant tau preformed fibrils (AD-P1 PFFs), and AD-tau. […] Clones that bound AD-tau and AD-P1 PFFs with greater apparent affinity than tau monomer were prioritized and subsequently sub-cloned by limiting dilutions to monoclonal populations.

[2] = biological target: T2, T40 tau monomer (full length tau protein, 2N4R isoform) (human, UniProt P10636 2-758); assay: sandwich ELISA, tau antigen captured by K9JA
T2 construct: no sentence says so outright; also called T40 monomer; human T40 tau
T2 sequence (P10636 other isoform, or with tags, fused parts or gaps limits assumed): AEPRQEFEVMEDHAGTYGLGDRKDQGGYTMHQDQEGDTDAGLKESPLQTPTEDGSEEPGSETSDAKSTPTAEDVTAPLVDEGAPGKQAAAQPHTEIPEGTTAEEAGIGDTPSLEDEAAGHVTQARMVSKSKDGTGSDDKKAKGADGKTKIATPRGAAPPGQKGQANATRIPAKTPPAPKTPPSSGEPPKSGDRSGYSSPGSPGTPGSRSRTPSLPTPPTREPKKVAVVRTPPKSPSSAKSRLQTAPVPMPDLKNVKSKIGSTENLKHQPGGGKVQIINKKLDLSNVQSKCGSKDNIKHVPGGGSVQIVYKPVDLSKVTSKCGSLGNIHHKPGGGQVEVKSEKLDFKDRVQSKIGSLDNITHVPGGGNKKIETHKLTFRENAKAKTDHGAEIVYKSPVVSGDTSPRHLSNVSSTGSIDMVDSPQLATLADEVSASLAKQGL
Method: as §1, §2

[3] = biological target: T3, AD-tau (Alzheimer's brain derived tau) (human, UniProt P10636-8 2-441, limits assumed); assay: sandwich ELISA, tau antigen captured by K9JA
T3 construct: Misfolded fibrillar tau from brain extract, not a single defined polypeptide; also called human AD-brain-derived pathological tau; AD tau PHF
T3 sequence (P10636 other isoform, or with tags, fused parts or gaps limits assumed): as above
Method: as §1, §2

ΔK18-P fragment of tau = ΔK18-P fragment of tau (Homo sapiens (Human), UniProt P10636 1-758); assay: western blot of tau fragments
Chain of ΔK18-P fragment of tau (P10636 other isoform, or with tags, fused parts or gaps mutant): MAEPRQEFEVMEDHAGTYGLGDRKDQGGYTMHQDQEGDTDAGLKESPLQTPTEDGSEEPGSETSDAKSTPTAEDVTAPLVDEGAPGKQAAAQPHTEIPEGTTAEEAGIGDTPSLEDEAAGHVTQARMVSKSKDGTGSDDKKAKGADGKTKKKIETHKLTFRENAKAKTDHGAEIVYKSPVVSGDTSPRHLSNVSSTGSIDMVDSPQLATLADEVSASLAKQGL
Method: (§3) T40 tau monomer or AD-tau were chemically and thermally denatured by 1:10 dilution in 8M guanidine hydrochloride and heating at 100° C. for 15 min, and non-denatured controls were diluted in Tris-buffered saline (TBS) at RT. Denatured or non-denatured tau was then diluted 1:50 in TBS and applied to 0.2 μm nitrocellulose membrane using a vacuum apparatus. For western blots, tau isoforms and fragments were diluted in SDS sample buffer, heated 10 min at 100° C., run on 12.5% SDS-PAGE gels and transferred to 0.2 μm nitrocellulose membrane. […] Infrared dye labeled secondary antibodies (LiCor) were used to detect primary antibody binding, with analysis on a LiCor scanner (LiCor).

K18 fragment of tau = K18 fragment of tau (UniProt P10636-8 244-372); assay: western blot of tau fragments
Chain of K18 fragment of tau (P10636 561-689 limits assumed): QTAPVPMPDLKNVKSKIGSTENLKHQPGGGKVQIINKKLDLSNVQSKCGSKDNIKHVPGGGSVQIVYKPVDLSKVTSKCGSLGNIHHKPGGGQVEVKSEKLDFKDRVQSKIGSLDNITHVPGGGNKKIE
Method: as §3

T1 sequence (P10636 other isoform, or with tags, fused parts or gaps limits assumed): as the sequence (P10636 other isoform, or with tags, fused parts or gaps limits assumed) above

B1: SKT82 (antibody, mouse IgG2a, V domains shown)
VH: EVQLQQSGAELVRSGASVKLSCTASGFNIKDYYMHWVKQRPEQGLEWIGWFDPENGDAEYAPKFQDKATMTADTSSNAAYLQLSSLTSEDTAVYYCNGYLYWGQGTLVTVSS
VL: DVLMTQTPLSLPVSLGDQASISCRSSQNIVHNNGNTYLEWYLQKPGQSPKLLIYKVSNRFSGVPDRFSGSGSGTDFTLKISRVEAEDLGIYYCFQGSHVPHTFGGGTRLEIK
notes: Mouse hybridoma monoclonal antibody purified from culture medium; also called tau mAb SKT82
B1 showed an EC50 [1] of 2.38 nM, an EC50 [2] of 4.13 nM and an EC50 [3] of 0.17 nM. B1: no binding (tested: 20 µg/mL) (ΔK18-P fragment of tau); no binding (tested: 20 µg/mL) (K18 fragment of tau).

B2: DMR7 (antibody, mouse IgG1, V domains shown)
VH: QVQLQQPGAELVRPGASVKLSCKASGYIFTTYWMNWVKQRPGQGLEWIAMIDPSDSETHYNQMFKDKATLTVDTSSSTAYMQLSGLTSEDSAVYYCARGEGYWGQGTTLTVSS
VL: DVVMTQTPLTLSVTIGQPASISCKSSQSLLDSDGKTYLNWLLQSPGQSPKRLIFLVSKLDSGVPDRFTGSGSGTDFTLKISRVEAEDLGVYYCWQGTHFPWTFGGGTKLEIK
notes: Mouse hybridoma monoclonal antibody purified from culture medium; also called tau mAb DMR7; MHC2825
B2 was tested, and the EC50 [1] was 0.46 nM, the EC50 [2] was 12 nM and the EC50 [3] was 0.1 nM. B2: no binding (tested: 20 µg/mL) (ΔK18-P fragment of tau); no binding (tested: 20 µg/mL) (K18 fragment of tau).
